This note sets out measurements from article PMC11601148, “Effects of proline substitution/inclusion on the nanostructure of a self-assembling β-sheet-forming peptide†” (RSC Advances, 2024).

Data set [1] concerns the molecule itself. Kind of data set: SAXS + WAXS; peptide samples at 5 and 10 mg/mL in quartz capillaries, beamline I22 at Diamond Light Source, water as background.
Data set [2] concerns the molecule itself. Kind of data set: ITC; NaOH (0.0025, 0.0125, 0.025 M) titrated into peptide at 0.1, 0.5 and 1 mg/mL in water, 25 °C; the energy change on deprotonation is read as a sign of self-assembly, no binding constant is fitted.

B1: FEFEPKFKF (peptide)
peptide: FEFEPKFKF
notes: KPE with the polar residues shuffled: glutamic acids on one side of the proline, lysines on the other; source: synthetic peptide, bought: Biomatik LLC (HCl salt, >90% purity)
For B1, in data set [1], the binding result was “binds”.

B2: FEFKFEFK (peptide)
peptide: FEFKFEFK
notes: also called F8; source: synthetic peptide, bought: Biomatik LLC (HCl salt, >90% purity)
As to B2, the binding result in data set [2] is recorded as “binds”.

B3: FEFKPEFKF (peptide)
peptide: FEFKPEFKF
notes: FP with one more phenylalanine at the C-terminal end; also called KEP; source: synthetic peptide, bought: Biomatik LLC (HCl salt, >90% purity)
Take B3: in data set [2], the binding result is “binds”.
